Results on four molecules are retold here after patent publication US20240141069A1 (SHANGHAI JEMINCARE PHARMACEUTICAL, published 2024).

The term EC50 denotes the midpoint of the concentration-response curve. The EC50 (read off the curve) is the concentration that produces a half-maximal response. Usually Kd stands for the constant that tells how readily two partners part at equilibrium.

For assay [1], the target named is T1, recombinant human MASP-2 protein hMASP2-D456 (human, UniProt O00187 287-686). As to the kind of experiment: ELISA on plate-coated hMASP2-D456, detection with HRP secondary antibody, OD450/630nm; unit taken from the axis 'Antibody pM (Ig)'. The method, then:
(§1) The hMASP2-D456 was diluted to 1.0 μg/mL and 0.5 μg/mL with a carbonate buffer solution (CBS), each added to a high binding transparent polystyrene 96-well plate (Nunc) with 100 μL/well and wrapped overnight at 4° C. The next day, the ELISA plate was washed twice on an automatic plate washer with a washing buffer (PBS+0.05% Tween 20 (sigma)). 300 μL of blocking buffer (PBS+0.05% Tween 20 (sigma)+1% BSA) was added to each well, and the ELISA plate was sealed at room temperature for 1 hour. Then the ELISA plate was washed twice with the washing buffer on the automatic plate washer, and the monoclonal antibody was diluted with the blocking buffer to 8 gradients. The monoclonal antibody was sequentially added to each well of the ELISA plate and incubated at room temperature for 1 hour, and then the plate was washed 3 times according to the above method. 100 μL of goat anti-mouse HRP (Sigma, article number: M4280) or rabbit anti-rat Fc-HRP (Sigma, article number: A5795) diluted at 1:5000 in the blocking buffer was added to each well. Incubation was performed at room temperature for 1 hour, and then the plate was washed 3 times according to the above method. […] The plate was read at 450 nm on a Thermo Multiscan FC. Graphs were drawn with Graphpad and EC50 was calculated. […]

Assay [2] deals with T2, mouse MASP-2 mMASP2-D456 (mouse, UniProt Q91WP0 287-685).
T2 construct: Made by the same method as hMASP2-D456
T2 sequence (Q91WP0 other isoform, or with tags, fused parts or gaps limits assumed): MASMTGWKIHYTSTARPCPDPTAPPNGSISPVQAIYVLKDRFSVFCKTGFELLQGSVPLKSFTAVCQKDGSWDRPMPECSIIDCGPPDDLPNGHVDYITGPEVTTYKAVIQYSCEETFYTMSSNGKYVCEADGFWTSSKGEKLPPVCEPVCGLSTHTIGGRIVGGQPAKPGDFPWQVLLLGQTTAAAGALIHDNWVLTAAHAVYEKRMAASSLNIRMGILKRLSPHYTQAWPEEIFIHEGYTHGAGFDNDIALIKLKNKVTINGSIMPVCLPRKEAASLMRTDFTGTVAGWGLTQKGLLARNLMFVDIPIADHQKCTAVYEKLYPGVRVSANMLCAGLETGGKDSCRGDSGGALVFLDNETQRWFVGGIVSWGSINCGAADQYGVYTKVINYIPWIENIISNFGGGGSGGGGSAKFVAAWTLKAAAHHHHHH
The experiment in a line: ELISA on plate-coated mMASP2-D456, OD450/630nm. The method, then:
as §1, with “The mouse mMASP2-D456 and cynomolgus monkey cMASP2-D456 were diluted to” for “The hMASP2-D456 was diluted to”, “carbonate buffer solution, each added” for “carbonate buffer solution (CBS), each added”, “monoclonal antibody 50A6 was diluted” for “monoclonal antibody was diluted”, “buffer to 15.0 μg/mL at 11 gradients. The” for “buffer to 8 gradients. The”, “at 1:5000 with the blocking” for “at 1:5000 in the blocking”
(In general: ELISA stands for enzyme-linked immunosorbent assay.)

For assay [3], the target named is T3, cynomolgus monkey MASP-2 cMASP2-D456 (cynomolgus monkey).
T3 construct: Made by the same method as hMASP2-D456
T3 sequence (chain, as listed by the source limits assumed): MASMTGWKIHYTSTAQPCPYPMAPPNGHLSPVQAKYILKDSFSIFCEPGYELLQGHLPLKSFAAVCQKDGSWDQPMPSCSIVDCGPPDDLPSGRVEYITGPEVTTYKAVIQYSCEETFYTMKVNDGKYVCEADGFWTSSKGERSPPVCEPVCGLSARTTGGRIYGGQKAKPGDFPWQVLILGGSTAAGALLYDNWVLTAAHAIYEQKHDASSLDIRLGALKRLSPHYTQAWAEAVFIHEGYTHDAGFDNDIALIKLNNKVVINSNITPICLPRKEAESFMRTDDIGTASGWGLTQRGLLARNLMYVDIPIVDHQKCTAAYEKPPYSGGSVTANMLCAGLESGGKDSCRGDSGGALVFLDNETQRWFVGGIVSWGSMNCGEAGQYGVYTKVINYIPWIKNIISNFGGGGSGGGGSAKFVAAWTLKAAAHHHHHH
The experiment in a line: ELISA on plate-coated cMASP2-D456, detection with HRP secondary antibody, OD450/630nm; unit taken from the axis 'Antibody pM (Ig)'. The method, then: as §1, with “The mouse mMASP2-D456 and cynomolgus monkey cMASP2-D456 were diluted to” for “The hMASP2-D456 was diluted to”, “carbonate buffer solution, each added” for “carbonate buffer solution (CBS), each added”, “monoclonal antibody 50A6 was diluted” for “monoclonal antibody was diluted”, “buffer to 15.0 μg/mL at 11 gradients. The” for “buffer to 8 gradients. The”, “at 1:5000 with the blocking” for “at 1:5000 in the blocking”

Assay [4] concerns the target T3, cynomolgus monkey MASP-2 cMASP2-D456. The experiment in a line: ELISA on plate-coated cMASP2-D456, detection with HRP secondary antibody, OD450/630nm. How it is done:
as §1, with “The mouse mMASP2-D456 and cynomolgus monkey cMASP2-D456 were diluted to” for “The hMASP2-D456 was diluted to”, “carbonate buffer solution, each added” for “carbonate buffer solution (CBS), each added”, “monoclonal antibody 50A6 was diluted” for “monoclonal antibody was diluted”, “buffer to 15.0 μg/mL at 11 gradients. The” for “buffer to 8 gradients. The”, “at 1:5000 with the blocking” for “at 1:5000 in the blocking”

The target in assay [5] is T1, recombinant human MASP-2 protein …. As to the kind of experiment: ELISA on plate-coated hMASP2-D456, detection with HRP secondary antibody, OD450/630nm; unit taken from the axis 'Antibody nM (Ig)'. How it is done: as §1
Assay [6] addresses T3, cynomolgus monkey MASP-2 cMASP2-D456. The experiment in a line: Octet RED96e BLI, antibody captured on AHC sensor, antigen 30 nM, 1:1 fit. The method, then:
(§2) Affinities of candidate antibodies JYB1931A63 and JYB1931A13 to human hMASP2-D456 (KACTUS, batch number: 080203), cynomolgus monkey cMASP2-D456 (KACTUS, batch number: 030301), and mouse mMASP2-D456 (KACTUS, batch number: 030401) were measured by Octet RED96e (Fortebio). The antigen and antibody were diluted with 1×PBST (1×PBS: Sangon, B548117-0500; 0.02% Tween 20: sigma-aldrich, P1379) at a concentration of 30 nM for the antigen and a concentration of 5 μg/mL for the antibody.
(§3) First, the sample was added to a 96-well plate (Greiner bio-one, 655209) with a system of 200 μL/well. Then, software parameters were set, the temperature of the plate was set to 30° C., and the frequency for collecting standard dynamic signals was 5.0 Hz. Next, an AHC sensor (Fortebio, article number: 18-0015) was pre-wet with 1×PBST for 10 minutes, and then data were acquired. Each cycle included the following steps: 1) immersing the sensor in a buffer solution for 60 seconds; 2) detecting whether the antigen had non-specific binding with the sensor; 3) regenerating the sensor with 10 mM pH 1.7 glycine solution; 4) immersing the sensor in the buffer solution for 60 seconds; 5) immobilizing the antibody on the sensor for 60 seconds; 6) immersing the sensor in the buffer solution for 180 seconds; 7) binding the antigen and the antibody for 180 seconds; 8) dissociating the antigen and the antibody for 5 minutes; and 9) regenerating the sensor.
(§4) A binding rate (Ka) and a dissociation rate (Kd) in a 1:1 antigen-antibody binding manner were measured by Fortebio's Data Analysis 12.0 software to calculate an equilibrium dissociation constant (KD) of the antibody.

In assay [7] the target is T1, recombinant human MASP-2 protein …. The description is as above. The method, then: as §2, §3, §4
The target of assay [8] is T2, mouse MASP-2 mMASP2-D456. The experiment in a line: Octet RED96e BLI, antibody captured on AHC sensor, antigen in solution. How it is done:
as §2
First, the sample was added to a 96-well plate (Greiner bio-one, 655209) with a system of 200 μL/well. Then, software parameters were set, the temperature of the plate was set to 30° C., and the frequency for collecting standard dynamic signals was 5.0 Hz. Next, an AHC sensor (Fortebio, article number: 18-0015) was pre-wet with 1×PBST for 10 minutes, and then data were acquired. […]
as §4
(In BLI a coated tip is dipped into the sample, and binding shifts an interference pattern.)

T1 sequence (O00187 other isoform, or with tags, fused parts or gaps limits assumed): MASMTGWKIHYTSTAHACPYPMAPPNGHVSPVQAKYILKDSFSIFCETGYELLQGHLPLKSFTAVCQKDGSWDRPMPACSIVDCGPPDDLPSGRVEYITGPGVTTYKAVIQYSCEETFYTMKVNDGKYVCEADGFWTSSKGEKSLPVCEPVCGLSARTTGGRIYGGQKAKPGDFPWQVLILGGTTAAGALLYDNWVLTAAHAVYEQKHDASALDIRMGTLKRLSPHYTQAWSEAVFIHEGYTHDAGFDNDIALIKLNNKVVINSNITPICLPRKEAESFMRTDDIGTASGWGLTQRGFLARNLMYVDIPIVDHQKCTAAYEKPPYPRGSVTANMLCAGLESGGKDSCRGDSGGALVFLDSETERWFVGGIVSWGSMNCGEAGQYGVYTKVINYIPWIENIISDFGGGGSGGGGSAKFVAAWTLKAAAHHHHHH

B1: rat anti-human MASP-2 monoclonal antibody 50A6 (antibody, V domains shown)
VH: EVQLVESGGGLVQPGRSLSLSCAASGFTFNDYNMAWVRQTPKKGLEWVATILFDGSRTYYRDSVKGRFTISRENAKSTLYLQMDSLRSEDTATYYCSTESPYYSEGYYQGYFDYWGQGVMVTVSS
VL: NIVLTQSPATLSVTPGESVSLSCRASQSVSTSIHWYQQRSNESPRLLIKYASRSISGIPSRFSGSGSGTDFTLSINRVESEDFSIYYCQQSYSSLYTFGAGTKLELR
notes: Rat hybridoma monoclonal antibody purified from serum-free culture and detected with anti-rat Fc-HRP; the rat constant regions are not; also called 50A6 antibody
For B1, the EC50 worked out at 93.3 pM in assay [1] and 67 pM in assay [3]. For the same molecule, the binding result in assay [2] is given as “no binding”.

B2: mouse anti-human MASP-2 monoclonal antibody 47A1 (antibody, V domains shown)
VH: DVQLQESGPGLVKPSQSLSLTCTVTGYSITSDYAWNWIRQFPGNKLEWMGYISYSGRTSYNPSLKSRISITRNTSTNQFFLQLNSVTTEDTATYFCARYWGDYWGQGTTLTVSS
VL: DIVMTQSQKFMSTSVGDRVSVTCKASQNVGSNVAWFQQKPGQSPKPLIYSASYRYSGVPDRFTGSGSGTDFTLTISNVQSEDLAEYFCHQYNTYPLTFGAGTKLELN
notes: Mouse hybridoma monoclonal antibody purified from serum-free culture and detected with anti-mouse HRP; the mouse constant regions are not; also called 47A1 antibody
With B2, in assay [4], the “EC50 (read off the curve)” value was approximately 600 pM. For the same molecule, in assay [5], the concentration for a half-maximal effect (EC50) stood at 333 pM.

B3: humanized anti-MASP-2 antibody JYB1931A13 (antibody, V domains shown)
VH: QVQLQESGPGLVKPSQTLSLTCTVSGYSITSDYAWNWIRQPPGKGLEWIGYISYSGRTSYNPSLKSRVTISRDTSKNQFSLKLSSVTAADTAVYYCARYWGDYWGQGTLVTVSS
VL: DIQMTQSPSSLSASVGDRVTITCKASQNVGSNVAWFQQKPGKAPKPLIYSASYRYSGVPSRFSGSGSGTDFTLTISSLQPEDFATYFCHQYNTYPLTFGGGTKVEIK
notes: Humanized from 47A1 and expressed in ExpiCHO as a full antibody; captured on an AHC (anti-human Fc) sensor
On to B3, for which the Kd in assay [6] was 305 pM; in assay [7], 1170 pM. In addition, the binding result in assay [8] is “no binding (tested: 30 nM antigen)”.

B4: humanized anti-MASP-2 antibody JYB1931A63 (antibody, V domains shown)
VH: EVQLVESGGGLVQPGGSLRLSCAASGFTFNDYNMAWVRQAPGKGLEWVATILFDGSRTYYRDSVKGRFTISRDNAKNSLYLQMNSLRAEDTAVYYCSTESPYYSEGYYQGYFDYWGQGTLVTVSS
VL: EIVLTQSPATLSLSPGERATLSCRASQSVSTSIHWYQQKPGQAPRLLIKYASRSISGIPARFSGSGSGTDFTLTISSLEPEDFAVYYCQQSYSSLYTFGQGTKLEIK
notes: Humanized from 50A6 and expressed in ExpiCHO as a full antibody; captured on an AHC (anti-human Fc) sensor
Take B4: the Kd came to 1310 pM in assay [6] and 335 pM in assay [7]. Further, in assay [8], the binding result is “no binding (tested: 30 nM antigen)”.
